Source: article PMC5493969

Molecular target: MBP + FGFR2 31-406 (ECD + TM) (human) (UniProt P21802)
Test: SEC; main elution fraction (1.5 M NaCl, 0.1% DDM) of a heparin affinity column loaded first with FGF1 and then with refolded MBP-FGFR2 ECD + TM, run on size exclusion chromatography; peaks analysed by SDS-PAGE and western blot (anti-MBP, anti-His-tag)

MBP + FGFR2 31-406 (ECD + TM) (from UniProt P21802 31-406) (domain or fragment)
stoichiometry N: 2
